Measured values: doi:10.1101/2022.08.17.504349

Target: RGA5-HMA5 labeled with NT-647 (MST) (rice) (UniProt F7J0N2)
Test: MST

## AVR-PikD, recombinant (MST and HDX-MS) (natural protein)
  Kd: 12 µM
